Measured values reported in patent publication US20140087995A1 (published 2014).
Numbered stars: 1 amine (or outer) side, 2 acyl side, 3 side chain; on linkers, the order of the positions; unused ones are H or OH. Bridge positions count the residues as written; N and C are the ends. Square brackets hold non-standard residues; d marks the D form. Side chains are listed from the residue outwards. Ends that are not written are not given here. * marks the point of attachment. C20 diacid = O=C(O)CCCCCCCCCCCCCCCCCCC(=O)*; γGlu = O=C(O)[C@H](CCC(=O)[*:2])N[*:1]; C14 diacid = O=C(O)CCCCCCCCCCCCC(=O)*

Experiments:
[1] = molecular target: T1, human calcitonin receptor (human, UniProt P30988 25-474); assay: ratio of IC50 on human calcitonin receptor (Assay VII) to IC50 on human amylin receptor (Assay V)
T1 construct: whole, on cells; Used as membranes prepared from the transfected cells (Assay VII); also called hCTR; hCT
T1 sequence (looked up): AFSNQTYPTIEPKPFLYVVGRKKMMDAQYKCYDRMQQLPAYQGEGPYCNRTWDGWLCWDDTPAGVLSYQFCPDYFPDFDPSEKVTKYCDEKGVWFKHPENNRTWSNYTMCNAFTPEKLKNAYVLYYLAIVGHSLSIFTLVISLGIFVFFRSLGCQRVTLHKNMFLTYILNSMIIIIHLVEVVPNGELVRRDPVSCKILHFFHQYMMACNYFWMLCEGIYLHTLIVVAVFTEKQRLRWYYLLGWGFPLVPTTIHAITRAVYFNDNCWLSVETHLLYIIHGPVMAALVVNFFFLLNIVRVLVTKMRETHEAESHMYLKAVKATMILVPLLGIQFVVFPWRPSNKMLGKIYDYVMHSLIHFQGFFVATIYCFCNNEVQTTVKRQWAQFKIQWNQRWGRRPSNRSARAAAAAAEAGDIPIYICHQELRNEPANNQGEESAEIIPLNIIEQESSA
Description: The resulting pellet was resuspended, homogenized and centrifuged (20.000 rpm, 15 min) in a buffer containing 20 mM Na-HEPES and 0.1 mM EDTA (pH 7.4, buffer 2). The resulting pellet was resuspended in buffer 2 and protein concentration was measured (BCA protein Assay, Pierce). The homogenate was kept cold during the whole procedure. The membranes were kept at −80° C. until use. The assay was performed in a 384 well Optiplate (PerkinElmer) in a total volume of 40 ul. Membranes were mixed with SPA beads. Final concentration of membranes 35 ng/μL final and SPA beads was 0.05 mg/well. Test-compounds were dissolved in DMSO and further diluted in assay buffer (50 mM Hepes, pH 7.4, 1 mM CaCl2, 5 mM MgCl₂, 0.1% OA and 0.02% Tween20). […] The final mixture was incubated with shaking at 400 rpm for 120 min at 25° C. prior to centrifugation (1500 rpm, 10 min). Samples were analyzed on TopCounter™ (Packard). The IC₅₀ was calculated using (one site binding competition analysis) GraphPad Prism5 as a measure of receptor affinity.
Membranes were prepared in the following way; the cells were rinsed with PBS and incubated with Versene for approximately 5 min before harvesting. The cells were flushed with PBS and the cell-suspension was centrifuged for 5 min at 1000 rpm. Cells were homogenized (Ultrathurrax) in a buffer containing 20 mM Na-HEPES and 10 mM EDTA (pH 7.4) and centrifuged at 20.000 rpm for 15 min. The resulting pellet was resuspended, homogenized and centrifuged (20.000 rpm, 15 min) in a buffer containing 20 mM Na-HEPES and 0.1 mM EDTA (pH 7.4, buffer 2). The resulting pellet was resuspended in buffer 2 and protein concentration was measured (BCA protein Assay, Pierce). The homogenate was kept cold during the whole procedure. The membranes were kept at −80° C. until use. Assay was performed in a 384 well Optiplate (PerkinElmer) in a total volume of 40 ul. Membranes were mixed with SPA beads.

rat calcitonin receptor [2] = molecular target: T2, rat calcitonin receptor (rat, UniProt P32214 25-516); assay: ratio of IC50 on rat calcitonin receptor (Assay VIII) to IC50 on rat amylin receptor (Assay VI)
T2 construct: whole, on cells; Used as membranes prepared from the transfected cells (Assay VIII); also called rCTR; rat calcitonin (a) receptor
T2 sequence (looked up): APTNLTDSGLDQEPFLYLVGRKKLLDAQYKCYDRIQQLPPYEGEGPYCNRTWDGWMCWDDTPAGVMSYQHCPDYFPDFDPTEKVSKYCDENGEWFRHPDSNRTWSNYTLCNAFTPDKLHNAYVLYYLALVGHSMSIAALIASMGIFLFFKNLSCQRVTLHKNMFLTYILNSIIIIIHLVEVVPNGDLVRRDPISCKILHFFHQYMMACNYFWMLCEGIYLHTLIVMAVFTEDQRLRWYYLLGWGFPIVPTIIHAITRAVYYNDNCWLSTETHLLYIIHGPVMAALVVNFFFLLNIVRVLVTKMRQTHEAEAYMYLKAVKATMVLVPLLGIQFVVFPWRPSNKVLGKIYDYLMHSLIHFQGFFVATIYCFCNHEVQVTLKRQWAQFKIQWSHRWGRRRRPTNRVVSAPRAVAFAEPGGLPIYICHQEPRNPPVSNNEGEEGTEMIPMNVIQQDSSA

[3] = molecular target: T3, rat amylin receptor (rat calcitonin receptor + rat RAMP 3) (rat, UniProt P32214 25-516; Q9JJ73 23-147); assay: SPA competition binding, displacement of 125I-rat amylin from membranes of BHK tk'ts 13 cells transfected with rat calcitonin receptor + rat RAMP 3 (Assay VI)
T3 construct: whole, on cells; Used as membranes prepared from the transfected cells (Assay VI); also called rAmylin-R; rat amylin 3(a) receptor
T3 sequence (looked up) 1: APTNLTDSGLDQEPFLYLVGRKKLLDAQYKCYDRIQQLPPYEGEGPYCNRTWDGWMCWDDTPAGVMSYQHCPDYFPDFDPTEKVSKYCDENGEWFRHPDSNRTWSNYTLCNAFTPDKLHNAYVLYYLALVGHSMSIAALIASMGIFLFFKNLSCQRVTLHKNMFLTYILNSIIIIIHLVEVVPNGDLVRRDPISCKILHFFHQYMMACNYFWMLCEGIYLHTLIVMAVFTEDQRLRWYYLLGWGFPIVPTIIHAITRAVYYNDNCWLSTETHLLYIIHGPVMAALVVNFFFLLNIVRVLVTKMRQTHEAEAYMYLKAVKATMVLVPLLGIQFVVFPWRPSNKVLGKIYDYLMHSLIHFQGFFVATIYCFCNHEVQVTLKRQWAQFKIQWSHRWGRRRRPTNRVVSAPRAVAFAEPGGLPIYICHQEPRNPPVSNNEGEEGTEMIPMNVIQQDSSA
T3 sequence (looked up) 2: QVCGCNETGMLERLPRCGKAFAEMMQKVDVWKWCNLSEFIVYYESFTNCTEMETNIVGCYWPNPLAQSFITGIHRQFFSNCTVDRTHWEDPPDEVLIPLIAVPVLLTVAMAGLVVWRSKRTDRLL

rat calcitonin receptor [4] = molecular target: T2, rat calcitonin receptor; assay: SPA competition binding, displacement of 125I-calcitonin from membranes of BHK tk'ts 13 cells transfected with rat calcitonin receptor (Assay VIII)

Row | Binder | Ratio hCT/hAmylin binding [1] | Ratio rCT/rAmylin binding (rat calcitonin receptor [2]) | IC50 [3] [nM] | IC50 (rat calcitonin receptor [4]) [nM]
1 | K([γGlu-γGlu-C20 diacid])CNTATCATQRLAEFLRHSSPNFGAIPSSTNVGPRTY-NH2 (disulfide 2-7; N-terminus assumed; SMILES CC[C@H](C)[C@H](NC(=O)[C@H](C)NC(=O)CNC(=O)[C@H](Cc1ccccc1)NC(=O)[C@H](CC(N)=O)NC(=O)[C@@H]1CCCN1C(=O)[C@H](CO)NC(=O)[C@H](CO)NC(=O)[C@H](Cc1c[nH]cn1)NC(=O)[C@H](CCCNC(=N)N)NC(=O)[C@H](CC(C)C)NC(=O)[C@H](Cc1ccccc1)NC(=O)[C@H](CCC(=O)O)NC(=O)[C@H](C)NC(=O)[C@H](CC(C)C)NC(=O)[C@H](CCCNC(=N)N)NC(=O)[C@H](CCC(N)=O)NC(=O)[C@@H](NC(=O)[C@H](C)NC(=O)[C@@H]1CSSC[C@H](NC(=O)[C@@H](N)CCCCNC(=O)CC[C@H](NC(=O)CC[C@H](NC(=O)CCCCCCCCCCCCCCCCCCC(=O)O)C(=O)O)C(=O)O)C(=O)N[C@@H](CC(N)=O)C(=O)N[C@@H]([C@@H](C)O)C(=O)N[C@@H](C)C(=O)N[C@@H]([C@@H](C)O)C(=O)N1)[C@@H](C)O)C(=O)N1CCC[C@H]1C(=O)N[C@@H](CO)C(=O)N[C@@H](CO)C(=O)N[C@H](C(=O)N[C@@H](CC(N)=O)C(=O)N[C@H](C(=O)NCC(=O)N1CCC[C@H]1C(=O)N[C@@H](CCCNC(=N)N)C(=O)N[C@H](C(=O)N[C@@H](Cc1ccc(O)cc1)C(N)=O)[C@@H](C)O)C(C)C)[C@@H](C)O, not restated for each compound; also called compound 110) | 53.6 | 113 | 0.339 | 38.3
2 | K([γGlu-C14 diacid])CNTATCATQRLANFLRHSSPNFGAIPSSTNVGHNTY-NH2 (disulfide 2-7; N-terminus assumed; SMILES CC[C@H](C)[C@H](NC(=O)[C@H](C)NC(=O)CNC(=O)[C@H](Cc1ccccc1)NC(=O)[C@H](CC(N)=O)NC(=O)[C@@H]1CCCN1C(=O)[C@H](CO)NC(=O)[C@H](CO)NC(=O)[C@H](Cc1c[nH]cn1)NC(=O)[C@H](CCCNC(=N)N)NC(=O)[C@H](CC(C)C)NC(=O)[C@H](Cc1ccccc1)NC(=O)[C@H](CC(N)=O)NC(=O)[C@H](C)NC(=O)[C@H](CC(C)C)NC(=O)[C@H](CCCNC(=N)N)NC(=O)[C@H](CCC(N)=O)NC(=O)[C@@H](NC(=O)[C@H](C)NC(=O)[C@@H]1CSSC[C@H](NC(=O)[C@@H](N)CCCCNC(=O)CC[C@H](NC(=O)CCCCCCCCCCCCC(=O)O)C(=O)O)C(=O)N[C@@H](CC(N)=O)C(=O)N[C@@H]([C@@H](C)O)C(=O)N[C@@H](C)C(=O)N[C@@H]([C@@H](C)O)C(=O)N1)[C@@H](C)O)C(=O)N1CCC[C@H]1C(=O)N[C@@H](CO)C(=O)N[C@@H](CO)C(=O)N[C@H](C(=O)N[C@@H](CC(N)=O)C(=O)N[C@H](C(=O)NCC(=O)N[C@@H](Cc1c[nH]cn1)C(=O)N[C@@H](CC(N)=O)C(=O)N[C@H](C(=O)N[C@@H](Cc1ccc(O)cc1)C(N)=O)[C@@H](C)O)C(C)C)[C@@H](C)O, not restated for each compound) [N^ε1-[(4S)-4-carboxy-4-(13-carboxytridecanoylamino)butanoyl]-[Arg17,Pro21,Pro27,His34]-h-amylin] | 23.5 | 280 | 2.52 | 707
3 | K([γGlu-γGlu-C20 diacid])CNTATCATQRLA[dD]FLRHSSPNFGAIPSSTNVGSRTY-NH2 (disulfide 2-7; N-terminus assumed; SMILES CC[C@H](C)[C@H](NC(=O)[C@H](C)NC(=O)CNC(=O)[C@H](Cc1ccccc1)NC(=O)[C@H](CC(N)=O)NC(=O)[C@@H]1CCCN1C(=O)[C@H](CO)NC(=O)[C@H](CO)NC(=O)[C@H](Cc1c[nH]cn1)NC(=O)[C@H](CCCNC(=N)N)NC(=O)[C@H](CC(C)C)NC(=O)[C@H](Cc1ccccc1)NC(=O)[C@@H](CC(=O)O)NC(=O)[C@H](C)NC(=O)[C@H](CC(C)C)NC(=O)[C@H](CCCNC(=N)N)NC(=O)[C@H](CCC(N)=O)NC(=O)[C@@H](NC(=O)[C@H](C)NC(=O)[C@@H]1CSSC[C@H](NC(=O)[C@@H](N)CCCCNC(=O)CC[C@H](NC(=O)CC[C@H](NC(=O)CCCCCCCCCCCCCCCCCCC(=O)O)C(=O)O)C(=O)O)C(=O)N[C@@H](CC(N)=O)C(=O)N[C@@H]([C@@H](C)O)C(=O)N[C@@H](C)C(=O)N[C@@H]([C@@H](C)O)C(=O)N1)[C@@H](C)O)C(=O)N1CCC[C@H]1C(=O)N[C@@H](CO)C(=O)N[C@@H](CO)C(=O)N[C@H](C(=O)N[C@@H](CC(N)=O)C(=O)N[C@H](C(=O)NCC(=O)N[C@@H](CO)C(=O)N[C@@H](CCCNC(=N)N)C(=O)N[C@H](C(=O)N[C@@H](Cc1ccc(O)cc1)C(N)=O)[C@@H](C)O)C(C)C)[C@@H](C)O, not restated for each compound) |  |  | 1.69 | 536
